Data from patent US20250320281A1.

Legend:
[1] = target: HIV-1 92RW020 Env (pseudovirus) (HIV-1); assay: cell-based or functional assay
[2] = target: HIV-1 92TH021 Env (pseudovirus) (HIV-1); assay: cell-based or functional assay
[3] = target: HIV-1 92UG005 Env (pseudovirus) (HIV-1); assay: cell-based or functional assay
[4] = target: HIV-1 92UG024 Env (pseudovirus) (HIV-1); assay: cell-based or functional assay
[5] = target: HIV-1 93IN905 Env (pseudovirus) (HIV-1); assay: cell-based or functional assay
[6] = target: HIV-1 94UG103 Env (pseudovirus) (HIV-1); assay: cell-based or functional assay
[7] = target: HIV-1 APV6 Env (pseudovirus) (HIV-1); assay: cell-based or functional assay
[8] = target: HIV-1 CMU02 Env (pseudovirus) (HIV-1); assay: cell-based or functional assay
[9] = target: HIV-1 Env of isolate MGRM-C-001 (HIV-1); assay: cell-based or functional assay
[10] = target: HIV-1 Env of isolate MGRM-C-002 (HIV-1); assay: cell-based or functional assay
[11] = target: HIV-1 Env of isolate MGRM-C-004 (HIV-1); assay: cell-based or functional assay
[12] = target: HIV-1 Env of isolate MGRM-C-005 (HIV-1); assay: cell-based or functional assay
[13] = target: HIV-1 Env of isolate MGRM-C-006 (HIV-1); assay: cell-based or functional assay
[14] = target: HIV-1 Env of isolate MGRM-C-007 (HIV-1); assay: cell-based or functional assay
[15] = target: HIV-1 Env of isolate MGRM-C-008 (HIV-1); assay: cell-based or functional assay
[16] = target: HIV-1 Env of isolate MGRM-C-009 (HIV-1); assay: cell-based or functional assay
[17] = target: HIV-1 Env of isolate MGRM-C-010 (HIV-1); assay: cell-based or functional assay
[18] = target: HIV-1 Env of isolate MGRM-C-012 (HIV-1); assay: cell-based or functional assay
[19] = target: HIV-1 Env of isolate MGRM-C-013 (HIV-1); assay: cell-based or functional assay
[20] = target: HIV-1 Env of isolate MGRM-C-014 (HIV-1); assay: cell-based or functional assay
[21] = target: HIV-1 Env of isolate MGRM-C-015 (HIV-1); assay: cell-based or functional assay
[22] = target: HIV-1 Env of isolate MGRM-C-017 (HIV-1); assay: cell-based or functional assay
[23] = target: HIV-1 Env of isolate MGRM-C-019 (HIV-1); assay: cell-based or functional assay
[24] = target: HIV-1 Env of isolate MGRM-C-020 (HIV-1); assay: cell-based or functional assay
[25] = target: HIV-1 Env of isolate MGRM-C-022 (HIV-1); assay: cell-based or functional assay
[26] = target: HIV-1 Env of isolate MGRM-C-023 (HIV-1); assay: cell-based or functional assay
[27] = target: HIV-1 Env of isolate MGRM-C-024 (HIV-1); assay: cell-based or functional assay
[28] = target: HIV-1 Env of isolate MGRM-C-025 (HIV-1); assay: cell-based or functional assay
[29] = target: HIV-1 Env of pseudovirus isolate MGRM-G-001 (HIV-1); assay: cell-based or functional assay
[30] = target: HIV-1 Env of pseudovirus isolate MGRM-G-004 (HIV-1); assay: cell-based or functional assay
[31] = target: HIV-1 Env of pseudovirus isolate MGRM-G-006 (HIV-1); assay: cell-based or functional assay
[32] = target: HIV-1 Env of pseudovirus isolate MGRM-G-009 (HIV-1); assay: cell-based or functional assay
[33] = target: HIV-1 Env of pseudovirus isolate MGRM-G-011 (HIV-1); assay: cell-based or functional assay
[34] = target: HIV-1 Env of pseudovirus isolate MGRM-G-013 (HIV-1); assay: cell-based or functional assay
[35] = target: HIV-1 Env of pseudovirus isolate MGRM-G-014 (HIV-1); assay: cell-based or functional assay
[36] = target: HIV-1 Env of pseudovirus isolate MGRM-G-015 (HIV-1); assay: cell-based or functional assay
[37] = target: HIV-1 Env of pseudovirus isolate MGRM-G-016 (HIV-1); assay: cell-based or functional assay
[38] = target: HIV-1 Env of pseudovirus isolate MGRM-G-017 (HIV-1); assay: cell-based or functional assay
[39] = target: HIV-1 Env of pseudovirus isolate MGRM-G-019 (HIV-1); assay: cell-based or functional assay
[40] = target: HIV-1 Env of pseudovirus isolate MGRM-G-027 (HIV-1); assay: cell-based or functional assay
[41] = target: HIV-1 JRCSF Env (pseudovirus) (HIV-1) (UniProt P20871); assay: cell-based or functional assay
[42] = target: HIV-1 MGRM-A-010 Env (pseudovirus) (HIV-1); assay: cell-based or functional assay
[43] = target: HIV-1 MGRM-C-026 Env (pseudovirus) (HIV-1); assay: cell-based or functional assay
[44] = target: HIV-1 MGRM-C-027 Env (pseudovirus) (HIV-1); assay: cell-based or functional assay
[45] = target: HIV-1 MGRM-C-028 Env (pseudovirus) (HIV-1); assay: cell-based or functional assay
[46] = target: HIV-1 MGRM-D-018 Env (pseudovirus) (HIV-1); assay: cell-based or functional assay
[47] = target: HIV-1 NL43 Env (pseudovirus) (HIV-1); assay: cell-based or functional assay
[48] = target: envelope of aMLV pseudovirus (negative control); assay: cell-based or functional assay
[49] = target: WT JR-FL gp120 (HIV-1); assay: ELISA, antigen-coated wells

4858_P08 (PGT-123) (antibody)
neutralization IC50 (pseudovirus) [1]: 0.0038 µg/mL
neutralization IC50 (pseudovirus) [2]: > 10 µg/mL
neutralization IC50 (pseudovirus) [3]: 2.49 µg/mL
neutralization IC50 (pseudovirus) [4]: > 10 µg/mL
neutralization IC50 (pseudovirus) [5]: 0.0071 µg/mL
neutralization IC50 (pseudovirus) [6]: 0.846 µg/mL
neutralization IC50 (pseudovirus) [7]: 0.0328 µg/mL
neutralization IC50 (pseudovirus) [8]: > 10 µg/mL
neutralization IC50 [9]: 42.4 µg/mL
neutralization IC50 [10]: 0.01 µg/mL
neutralization IC50 [11]: 0.009 µg/mL
neutralization IC50 [12]: 0.012 µg/mL
neutralization IC50 [13]: 0.021 µg/mL
neutralization IC50 [14]: 0.547 µg/mL
neutralization IC50 [15]: 0.011 µg/mL
neutralization IC50 [16]: > 50 µg/mL
neutralization IC50 [17]: > 50 µg/mL
neutralization IC50 [18]: 0.606 µg/mL
neutralization IC50 [19]: 14.9 µg/mL
neutralization IC50 [20]: 1 µg/mL
neutralization IC50 [21]: 13.1 µg/mL
neutralization IC50 [22]: 0.01 µg/mL
neutralization IC50 [23]: > 50 µg/mL
neutralization IC50 [24]: > 50 µg/mL
neutralization IC50 [25]: 0.01 µg/mL
neutralization IC50 [26]: 0.011 µg/mL
neutralization IC50 [27]: 0.195 µg/mL
neutralization IC50 [28]: 13.3 µg/mL
IC50 (µg/mL), pseudovirus neutralization [29]: 0.009 µg/mL
IC50 (µg/mL), pseudovirus neutralization [30]: 0.181 µg/mL
IC50 (µg/mL), pseudovirus neutralization [31]: > 50 µg/mL
IC50 (µg/mL), pseudovirus neutralization [32]: 33.5 µg/mL
IC50 (µg/mL), pseudovirus neutralization [33]: 14.9 µg/mL
IC50 (µg/mL), pseudovirus neutralization [34]: 3.97 µg/mL
IC50 (µg/mL), pseudovirus neutralization [35]: 0.005 µg/mL
IC50 (µg/mL), pseudovirus neutralization [36]: > 50 µg/mL
IC50 (µg/mL), pseudovirus neutralization [37]: > 50 µg/mL
IC50 (µg/mL), pseudovirus neutralization [38]: 0.026 µg/mL
IC50 (µg/mL), pseudovirus neutralization [39]: 0.008 µg/mL
IC50 (µg/mL), pseudovirus neutralization [40]: 0.182 µg/mL
neutralization IC50 (pseudovirus) [41]: 0.0423 µg/mL
neutralization IC50 (pseudovirus) [42]: 0.492 µg/mL
neutralization IC50 (pseudovirus) [43]: 0.0031 µg/mL
neutralization IC50 (pseudovirus) [44]: 0.0169 µg/mL
neutralization IC50 (pseudovirus) [45]: 0.443 µg/mL
neutralization IC50 (pseudovirus) [46]: 0.0047 µg/mL
neutralization IC50 (pseudovirus) [47]: > 10 µg/mL
IC50 (µg/mL), pseudovirus neutralization [48]: > 50 µg/mL
EC50 [49]: 0.2 µg/mL

5145_B14 (PGT-127) (antibody)
neutralization IC50 [9]: > 50 µg/mL
neutralization IC50 [10]: 0.057 µg/mL
neutralization IC50 [11]: 0.532 µg/mL
neutralization IC50 [12]: 0.57 µg/mL
neutralization IC50 [13]: 0.319 µg/mL
neutralization IC50 [14]: > 50 µg/mL
neutralization IC50 [15]: > 50 µg/mL
neutralization IC50 [16]: > 50 µg/mL
neutralization IC50 [17]: > 50 µg/mL
neutralization IC50 [18]: 1.07 µg/mL
neutralization IC50 [19]: > 50 µg/mL
neutralization IC50 [20]: > 50 µg/mL
neutralization IC50 [21]: > 50 µg/mL
neutralization IC50 [22]: 3.4 µg/mL
neutralization IC50 [23]: 0.017 µg/mL
neutralization IC50 [24]: > 50 µg/mL
neutralization IC50 [25]: 0.41 µg/mL
neutralization IC50 [26]: 1.08 µg/mL
neutralization IC50 [27]: > 50 µg/mL
neutralization IC50 [28]: > 50 µg/mL
IC50 (µg/mL), pseudovirus neutralization [29]: 0.113 µg/mL
IC50 (µg/mL), pseudovirus neutralization [30]: > 50 µg/mL
IC50 (µg/mL), pseudovirus neutralization [31]: > 50 µg/mL
IC50 (µg/mL), pseudovirus neutralization [32]: > 50 µg/mL
IC50 (µg/mL), pseudovirus neutralization [33]: > 50 µg/mL
IC50 (µg/mL), pseudovirus neutralization [34]: 7.7 µg/mL
IC50 (µg/mL), pseudovirus neutralization [35]: 0.009 µg/mL
IC50 (µg/mL), pseudovirus neutralization [36]: > 50 µg/mL
IC50 (µg/mL), pseudovirus neutralization [37]: > 50 µg/mL
IC50 (µg/mL), pseudovirus neutralization [38]: > 50 µg/mL
IC50 (µg/mL), pseudovirus neutralization [39]: 0.429 µg/mL
IC50 (µg/mL), pseudovirus neutralization [40]: > 50 µg/mL
IC50 (µg/mL), pseudovirus neutralization [48]: > 50 µg/mL
EC50 [49]: 0.1 µg/mL

4838_L06 (PGT-121) (antibody)
neutralization IC50 (pseudovirus) [2]: > 10 µg/mL
neutralization IC50 (pseudovirus) [3]: > 10 µg/mL
neutralization IC50 (pseudovirus) [4]: > 10 µg/mL
neutralization IC50 (pseudovirus) [8]: > 10 µg/mL
neutralization IC50 [9]: 17.5 µg/mL
neutralization IC50 [10]: 0.019 µg/mL
neutralization IC50 [11]: 0.011 µg/mL
neutralization IC50 [12]: 0.015 µg/mL
neutralization IC50 [13]: 0.017 µg/mL
neutralization IC50 [14]: 0.196 µg/mL
neutralization IC50 [15]: 0.012 µg/mL
neutralization IC50 [16]: > 50 µg/mL
neutralization IC50 [17]: > 50 µg/mL
neutralization IC50 [18]: 0.123 µg/mL
neutralization IC50 [19]: 7.23 µg/mL
neutralization IC50 [20]: 26.9 µg/mL
neutralization IC50 [21]: 25.1 µg/mL
neutralization IC50 [22]: 0.009 µg/mL
neutralization IC50 [23]: > 50 µg/mL
neutralization IC50 [24]: > 50 µg/mL
neutralization IC50 [25]: 0.015 µg/mL
neutralization IC50 [26]: 0.017 µg/mL
neutralization IC50 [27]: 0.052 µg/mL
neutralization IC50 [28]: 46.8 µg/mL
IC50 (µg/mL), pseudovirus neutralization [29]: 0.004 µg/mL
IC50 (µg/mL), pseudovirus neutralization [30]: 0.115 µg/mL
IC50 (µg/mL), pseudovirus neutralization [31]: > 50 µg/mL
IC50 (µg/mL), pseudovirus neutralization [32]: 0.02 µg/mL
IC50 (µg/mL), pseudovirus neutralization [33]: 3.17 µg/mL
IC50 (µg/mL), pseudovirus neutralization [34]: 3.99 µg/mL
IC50 (µg/mL), pseudovirus neutralization [35]: 0.009 µg/mL
IC50 (µg/mL), pseudovirus neutralization [36]: > 50 µg/mL
IC50 (µg/mL), pseudovirus neutralization [37]: > 50 µg/mL
IC50 (µg/mL), pseudovirus neutralization [38]: 0.004 µg/mL
IC50 (µg/mL), pseudovirus neutralization [39]: 0.011 µg/mL
IC50 (µg/mL), pseudovirus neutralization [40]: 0.124 µg/mL
neutralization IC50 (pseudovirus) [47]: > 10 µg/mL
IC50 (µg/mL), pseudovirus neutralization [48]: > 50 µg/mL
EC50 [49]: 0.2 µg/mL
